Numbering of substitutions follows the chain as printed. Names and notes keep the numbering of the source.
T1: human gamma glutamyl hydrolase (hGH) (Homo sapiens, UniProt Q92820, C134A)
T1 construct: A cDNA encoding the 294 amino acid mature form of hGH protein with an N-terminal methionine preceding the first arginine residue; added N-terminal methionine (start codon) (N); made in house; host or cells: E. coli BL21(DE3)pLysS, pET-24a (pET-hGH)
T1 sequence (Q92820 with tags, fused parts or gaps C134A): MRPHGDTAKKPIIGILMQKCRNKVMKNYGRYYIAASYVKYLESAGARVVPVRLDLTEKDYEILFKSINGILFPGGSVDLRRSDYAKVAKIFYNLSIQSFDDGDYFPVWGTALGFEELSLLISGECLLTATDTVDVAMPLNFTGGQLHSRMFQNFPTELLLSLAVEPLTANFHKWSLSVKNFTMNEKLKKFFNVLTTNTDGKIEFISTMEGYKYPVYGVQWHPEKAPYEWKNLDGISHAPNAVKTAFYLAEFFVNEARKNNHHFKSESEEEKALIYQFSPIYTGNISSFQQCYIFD

T2: human gamma glutamyl hydrolase (hGH) (Homo sapiens, UniProt Q92820, C134A)
T2 construct: A cDNA encoding the 294 amino acid mature form of hGH protein with an N-terminal methionine preceding the first arginine residue; added N-terminal methionine (start codon) (N); made in house; host or cells: E. coli BL21(DE3)pLysS, pET-24a (pET-hGH)
T2 sequence (Q92820 25-318 C134A): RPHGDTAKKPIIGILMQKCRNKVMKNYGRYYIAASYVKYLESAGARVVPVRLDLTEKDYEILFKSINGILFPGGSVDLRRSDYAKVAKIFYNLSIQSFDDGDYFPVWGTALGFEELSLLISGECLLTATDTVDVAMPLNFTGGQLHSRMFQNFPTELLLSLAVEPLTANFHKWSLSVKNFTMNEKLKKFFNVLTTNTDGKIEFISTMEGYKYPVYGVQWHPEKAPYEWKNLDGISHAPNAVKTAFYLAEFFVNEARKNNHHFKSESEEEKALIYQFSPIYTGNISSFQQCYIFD

T3: human gamma glutamyl hydrolase (hGH) (Homo sapiens, UniProt Q92820, H195A)
T3 construct: A cDNA encoding the 294 amino acid mature form of hGH protein with an N-terminal methionine preceding the first arginine residue; added N-terminal methionine (start codon) (N); made in house; host or cells: E. coli
T3 sequence (Q92820 25-318 H195A): T2 sequence (Q92820 25-318 C134A) with A110C, H171A

B1: C110A: hGH variant with cysteine 110 replaced by alanine (protein)
chain: T2 sequence (Q92820 25-318 C134A) with K242N, T243P, N258K
B2: His171Ala: hGH mutant with His 171 changed to Ala (protein)
chain: T2 sequence (Q92820 25-318 C134A) with A110C, H171A, K242N, T243P, N258K

Legend:
Assay type in all cases: biochemical
[1] = target: T1, human gamma glutamyl hydrolase (hGH); assay: hGH activity assay with 4-NH2-10-CH3PteGlu2 as substrate (Km, Vmax, specific activity) of E. coli-expressed purified proteins; conditions: assayed with either 4-NH2-10-CH3PteGlu2 or the better substrate 4-NH2-10-CH3PteGlu
Protocol: (§1) Mutant plasmids were used to transform E. colistrain BL21(DE3)pLysS to kanamycin resistance. Cultures (20 ml) were grown for 16 hours at 37° C., 225 rpm in tryptone-phosphate broth (Moore et al. 1993), containing 30 μg/ml kanamycin and 34 μg/ml chloramphenicol. An aliquot (6 ml) of this culture was used to inoculate 500 ml of the same medium. Cultures were incubated at 27° C., 225 rpm until the OD600nm was 0.5-0.6. Isopropyl β-D-thiogalactoside (IPTG) was added to a final concentration of 1 mM and cultures were incubated for a further 3 hours. Cells were harvested by centrifugation and stored at −80° C. Cells from 1 liter of broth were resuspended in 50 ml of 50 mM Tris/HCl pH 7.5 buffer containing 500 mM NaCl and Complete protease inhibitor cocktail (Boehringer Mannheim, Indianapolis, Ind.). The mixture was sonicated and clarified by centrifugation at 20,000 g for 30 minutes at 4° C. A 20-60% ammonium sulfate precipitate was resuspended in 50 mM sodium acetate, pH 5.8, 1 mM octyl-β-D-glucoside (OBG) and 5% glycerol (buffer A). After dialysis at 4° C. against buffer A and clarification by centrifugation at 30,000 g, 4° C. for 120 minutes, the dialysate was applied in two aliquots to a Protein Pak SP colummn (1.0 cm×10 cm, Waters Division of Millipore Corp., Milford, Mass.) equilibrated in buffer A. The protein was eluted (1 ml/min) with a linear gradient in buffer A of 0 to 1M NaCl over 60 minutes. Fractions were assayed for hGH activity or for hGH protein by Western blot. Fractions containing hGH were pooled and frozen at −80° C. Wildtype hGH and the C19A, C110A, and C290A mutants eluted as two peaks whereas the C124A mutant eluted as a single peak coincident with the first peak for the other hGH proteins. […] There was 8-10 times more hGH protein in peak 1 than in peak 2. A statistically significant amount (40-82%) of enzyme activity of proteins purified on the SP column was lost when stored either at 4° C. or at −80° C. Thawed aliquots of peak 1 were incubated for 2 hours at 4° C. with 2 ml of pHMB agarose (0.8 μmole/ml agarose) (Sigma Chemical, St. Louis, Mo.) equilibrated in 50 mM sodium acetate pH 5.8, 20 mM OBG, 500 mM NaCl (buffer B). The matrix was poured into a column (0.75 cm×4.5 cm) and washed with buffer B. hGH protein was eluted with buffer B containing additionally 10 mM dithiothreitol and 50 mM β-mercaptoethanol. EDTA (1 mM final) was added to each fraction to inhibit remaining proteases. Fractions containing hGH were pooled and stored at −80° C.
(§2) Km and Vmax activities were measured using variable 4-NH2-10-CH3PteGlu2 substrate concentrations. Specific activities were measured using 200 μM 4-NH2-10-CH3PteGlu2 for 5 minutes.

[2] = system: human gamma glutamyl hydrolase (hGH); assay: as above
Protocol: as §1, §2

[3] = target: T2, human gamma glutamyl hydrolase (hGH); assay: hGH activity in chromatography fractions measured with 4-NH2-10-CH3PteGlu5; conditions: substrate 4-NH2-10-CH3PteGlu5
Protocol: Mutant plasmids were used to transform E. colistrain BL21(DE3)pLysS to kanamycin resistance. Cultures (20 ml) were grown for 16 hours at 37° C., 225 rpm in tryptone-phosphate broth (Moore et al. 1993), containing 30 μg/ml kanamycin and 34 μg/ml chloramphenicol. An aliquot (6 ml) of this culture was used to inoculate 500 ml of the same medium. Cultures were incubated at 27° C., 225 rpm until the OD600nm was 0.5-0.6. Isopropyl β-D-thiogalactoside (IPTG) was added to a final concentration of 1 mM and cultures were incubated for a further 3 hours. Cells were harvested by centrifugation and stored at −80° C. Cells from 1 liter of broth were resuspended in 50 ml of 50 mM Tris/HCl pH 7.5 buffer containing 500 mM NaCl and Complete protease inhibitor cocktail (Boehringer Mannheim, Indianapolis, Ind.). The mixture was sonicated and clarified by centrifugation at 20,000 g for 30 minutes at 4° C. A 20-60% ammonium sulfate precipitate was resuspended in 50 mM sodium acetate, pH 5.8, 1 mM octyl-β-D-glucoside (OBG) and 5% glycerol (buffer A). […]

[4] = system: human gamma glutamyl hydrolase (hGH); assay: Activity of baculovirus-expressed hGH mutants on methotrexate polyglutamates; conditions: mutants expressed in the baculovirus system
Source text: This model for the active site of hGH has been tested by preparing the Cys110Ala, His220Ala, Glu222Ala, His171Ala, and His171Asn mutants of hGH. The mutants were expressed in the baculovirus system used for active hGH to facilitate the rapid expression and purification of the proteins. The mutant proteins were characterized for activity on methotrexate polyglutamates. […] The role of His171 in hGH has been examined by preparing the mutant His171Ala and the more conservative mutation His171Asn.

[5] = target: T3, human gamma glutamyl hydrolase (hGH); assay: Activity of His 171 to Ala hGH mutant from E. coli expression system
Source text: CPS contains two domains and catalyzes the synthesis of carbamoyl phosphate from bicarbonate, glutamine, and two molecules of MgATP. The smaller subunit is the site of glutamine hydrolysis to produce ammonia for deliver to the larger subunit. In agreement with the site directed mutagenesis study described above, the model predicts that Cys110 in hGH is analogous to Cys 269 in CPS, which functions as the active site nucleophile attacking the γ-carbonyl of glutamine to form a glutamyl thioester intermediate (Thoden et al. 1998). The model also predicts that His 220 and Glu 222 in hGH are the other two amino acids in the catalytic triad, corresponding to His 353 and Glu 355 in CPS. His 220 and Glu 222 are conserved in the human, rat and mouse glutamyl hydrolase sequences. In the proposed model for hGH, His 220 would activate Cys 110 and Glu 222 would stabilize the resulting positively charged imidizolium cation. […] His 312 in CPS points away from the catalytic triad and is involved in substrate binding not catalysis. When His 312 in CPS was conservatively mutated to Asn, the Km for the substrate was increased 200-fold (Miran et al. 1991). […] Further reinforcing evidence for this alignment model was obtained by running the Pfam HMM search program (Sonnhammer et al. 1998). The Pfam result has an E-value of 0.13 with the GATase model of class-I glutamine amidotransferases. […]

Row | Molecule | Activity relative to wildtype enzyme [1] | Specific activity (nmol 4-NH2-10-CH3PteGlu2 hydrolyzed/min/mg protein) ([2]; 200 μM 4-NH2-10-CH3PteGlu2 for 5 minutes, mean ± SD of 3 experiments) | hGH activity (in words) ([2]; purified E. coli-expressed proteins) | hGH activity in SP cation exchange column fractions [3] | Activity on methotrexate polyglutamates [4] | Activity on methotrexate tetraglutamate [4] | hGH activity (in words) [5]
1 | B1 | less than 0.01 % of wildtype enzyme | no activity | no activity | no fractions contained hGH activity | inactive |  | 
2 | B2 |  |  |  |  |  | inactive | lack of activity
